Test [1] addresses Staphylococcus aureus protein A (Staphylococcus aureus) (UniProt P38507). The test can be described thus: particle-based immunoassay read by flow cytometry; protein A covalently coupled (EDC/sulfo-NHS) to 2.35 μm carboxylated PS beads; 10 μg purified BBM.1 in 1 mL PBS pH 8.2, 2 h; detected with GαM-AF488. In general terms: In flow cytometry, cells or beads pass a laser one at a time.

Test [2] shares this target. Briefly: particle-based immunoassay read by flow cytometry; protein A covalently coupled (EDC/sulfo-NHS) to 6 μm (PAH/PAA)2 polyelectrolyte microcapsules; 10 μg purified BBM.1 in 1 mL PBS pH 8.2, 2 h; detected with GαM-AF488; dose-response also in PBS pH 7.2 and complete RPMI.

Regarding murine monoclonal antibody BBM.1, the mean fluorescence intensity (MFI) in test [1] worked out at 12.2; in test [2] it was 33.5.

The values are drawn from publication PMC6054379.
